Assay results taken from PMC5979349, “The Recombinant Inhibitor of DNA Binding Id2 Forms Multimeric Structures via the Helix-Loop-Helix Domain and the Nuclear Export Signal” (International Journal of Molecular Sciences, 2018).

What was measured:
[1] = molecular target: the molecule itself; assay: MALDI-TOF mass spectrometry; lyophilized protein dissolved in water, α-cyano-4-hydroxycinnamic acid as matrix
[2] = molecular target: the molecule itself; assay: dynamic light scattering; Id2’ 80 μM in pure water, 21 °C, two weeks old filtered sample; globular model for molecular weight
[3] = molecular target: the molecule itself; assay: NMR diffusion-ordered spectroscopy (DOSY); unlabeled Id2’ at 0.27 mM in H2O/D2O (94:6, v/v); calibration curve with protein standards
[4] = molecular target: the molecule itself; assay: dynamic light scattering; Id2’ 80 μM in pure water, 21 °C, measured immediately after filtration (0.2 μm); globular model for molecular weight

B1: recombinant full-length human Id2 protein, preparation with oligomers of the type Id2nβMEn (natural protein, UniProt Q02363 1-134, looked up)
chain: MKAFSPVRSVRKNSLSDHSLGISRSKTPVDDPMSLLYNMNDCYSKLKELVPSIPQNKKVSKMEILQHVIDYILDLQIALDSHPTIVSLHHQRPGQNQASRTPLTTLNTDISILSLQASEFPSELMSNDSKALCG
modifications: mixed disulfide with βME, as Id2nβMEn (n = 2–4)
notes: the His-tag of pET22b(+) was excluded by a double stop; Another preparation of the same construct as m1; the formula implies one βME for each monomer, so one cysteine of each monomer is free or in an intermolecular disulfide
[1]
  stoichiometry N: 2 to 4

B2: recombinant full-length human Id2 protein, sample Id2’ (natural protein, UniProt Q02363 1-134, looked up)
chain: B1 chain
modifications: both cysteine residues (Cys-42 and Cys-133) disulfide-bonded to β-mercaptoethanol (βME); one oxidized methionine residue, Met(O)
notes: the His-tag of pET22b(+) was excluded by a double stop; The most homogeneous unlabeled preparation; also called Id2 1–134
[2]
  stoichiometry N: 16 monomers
[3]
  stoichiometry N: ~16 monomers
[4]
  stoichiometry N: 3 monomers
